One substance from article PMC5662892 can be followed below.

This data set concerns ORC-Qdot705 (Orc1-6) (budding yeast). As to the kind of experiment: single-molecule TIRFM. The conditions noted are these: RPA: 20 mM Tris pH 7.5, 50 mM NaCl, 2 mM EDTA, 0.2 mg/ml BSA, ORC: 25 mM HEPES pH 7.6, 12 mM MgOAc, 50 uM ZnOAc, 1 mM DTT, 225 mM KGlut, 3 mM ATP.

In the case of lambda-ARS1, the binding signal (% of binding positions at ARS1 site) was determined as 12.8.
